The source of these data is US20010046966.

One data set addresses GATA-3 (UniProt P23772). The data set is described as follows: cell_activity. The conditions noted are these: NIH3T3 luciferase.
Another data set has as its target GATA-2 (UniProt O09100). The experiment in a line: cell_activity. The conditions noted are these: NIH3T3 luciferase.

Chain of GATA-3 (P23772 whole entry): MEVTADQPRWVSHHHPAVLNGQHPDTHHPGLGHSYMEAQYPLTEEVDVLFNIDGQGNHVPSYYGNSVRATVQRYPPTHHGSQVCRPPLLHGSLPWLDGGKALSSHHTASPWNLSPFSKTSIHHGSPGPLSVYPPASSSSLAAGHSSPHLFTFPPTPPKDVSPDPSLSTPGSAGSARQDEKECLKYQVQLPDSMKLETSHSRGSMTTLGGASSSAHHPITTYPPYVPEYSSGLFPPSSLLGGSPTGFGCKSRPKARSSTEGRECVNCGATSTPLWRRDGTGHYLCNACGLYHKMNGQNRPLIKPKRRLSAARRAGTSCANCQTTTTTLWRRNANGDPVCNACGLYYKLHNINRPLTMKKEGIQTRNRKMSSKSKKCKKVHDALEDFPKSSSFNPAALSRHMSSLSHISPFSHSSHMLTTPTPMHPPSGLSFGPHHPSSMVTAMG
Chain of GATA-2 (O09100 whole entry): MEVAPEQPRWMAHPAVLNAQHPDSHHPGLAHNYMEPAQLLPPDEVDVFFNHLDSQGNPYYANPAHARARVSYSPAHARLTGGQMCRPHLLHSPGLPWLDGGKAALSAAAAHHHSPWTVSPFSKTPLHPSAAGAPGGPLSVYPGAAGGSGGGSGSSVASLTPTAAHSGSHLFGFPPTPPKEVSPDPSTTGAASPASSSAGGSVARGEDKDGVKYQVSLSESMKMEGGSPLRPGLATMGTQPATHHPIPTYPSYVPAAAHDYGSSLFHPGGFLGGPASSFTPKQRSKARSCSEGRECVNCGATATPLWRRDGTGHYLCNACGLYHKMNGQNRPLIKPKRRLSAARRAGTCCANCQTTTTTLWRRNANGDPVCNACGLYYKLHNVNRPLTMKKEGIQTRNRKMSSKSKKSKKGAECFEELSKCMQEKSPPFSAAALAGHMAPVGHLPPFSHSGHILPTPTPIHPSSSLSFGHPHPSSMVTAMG

On to “PPAR-gamma2 promoter -603 to +62 luciferase reporter”, for which the activity (fold suppression) in the data set with GATA-3 and with GATA-2 was 5 throughout.
